Legend:
Test in all cases: Algicidal activity by cell count after 24 hr (Lugol staining)
Format in all cases: cell-based
Thalassiosira sp. = settings: for Algicidal activity (degree of inhibition): 50 μl of protein (100 μg/ml), after 24 hr
Procedure: (§1) Organisms used as host for algicidal bacteria screen are Cochlodinium polykrikoides, Thalassiosira sp., Heterosigma akashiwo, Skeletonema costatum, Alexandrium sp., Gymnodium sp., Chaetoceros cuvisetus. Each algae cell was grown to log phase in F/2 broth (0.075 g NaNO3, 0.005 g NaH2PO4?H2O, 0.030 g Na2SiO3?9H2O, 1 ml F/2 trace metal solution, 1 ml F/2 vitamin solution and 1,000 ml aged seawater) [Stein, Handbook of phycological methods, Cambridge Univ. Press, 1973].
(§2) The cultured red tide organisms were diluted in F/2 broth to a final density of 0.05 (excitation wavelength=434 nm, emission wavelength=670 nm)on the fluorescent intensity using fluoro-spectrophotometer (Hitachi, Japan), and then 2.7 ml aliquots were dispensed into several test tubes (110 mm×10 mm) to prepare for the MPN (most probable number) method.
(§3) To measure algicidal activity of 10476—7 protein (SEQ ID NO:27), 50 μl of said protein (100 μg/ml) was added to the culture solutions of Cochlodinium polykrikoides, Thalassiosira sp., Heterosigma akashiwo, Skeletonema costatum, Alexandrium sp., Chaetoceros cuvisetus and Gymnodniium sp. which were prepared in Example 2. After 24 hr, said culture solutions were stained with 1% Lugol's iodine solution, and then the cell number was counted. Experimental groups with protease (experimental group 1 and 2) were compared with control group without protease in cell number and the degree of inhibition.
(§4) To check algicidal activity of proteins isolated Flavobacterium johnsoniae UW101 (ZP—01247095, SEQ ID NO: 4), Croceibacter atlanticus HTCC2559 (ZP—00951344, SEQ ID NO: 5), Leeuwenhoekiella blandensis MED217 (ZP—01059780, SEQ ID NO: 6) and Kordia algicida KAOT1—11562 (SEQ ID NO: 7), 50 μl of said protein (100 μg/ml) was added to the culture solutions of Cochlodinium polykrikoides, Thalassiosira sp., Heterosigma akashiwo, Skeletonema costatum, Alexandrium sp., Chaetoceros cuvisetus, and Gymnodium sp., which were prepared in Example 2. After 24 hr, said culture solutions were stained with 1% Lugol's iodine solution, and then the cell number was counted.
(§5) Experimental groups with protease (experimental group 1 and 2) were compared with control group without protease in cell number and the degree of inhibition.

Gymnodinium sp. = settings: for Algicidal activity (degree of inhibition): 50 μl of protein (100 μg/ml), after 24 hr
Procedure: as §1, §2, §3, §4, §5

Chaetoceros cuvisetus = settings: for Algicidal activity (degree of inhibition): 50 μl of protein (100 μg/ml), after 24 hr
Procedure: as §1, §2, §3, §4, §5

Skeletonema costatum = settings: for Algicidal activity (degree of inhibition): 50 μl of protein (100 μg/ml), after 24 hr
Procedure: as §1, §2, §3, §4, §5

Alexandrium sp. = settings: for Algicidal activity (degree of inhibition): 50 μl of protein (100 μg/ml), after 24 hr
Procedure: as §1, §2, §3, §4, §5

[1] = system: Cochlodinium polykrikoides; settings: Cochlodinium polykrikoides; for Algicidal activity (degree of inhibition): 50 μl of protein (100 μg/ml), after 24 hr
Procedure: as §1, §2, §3, §4, §5

Heterosigma akashiwo = settings: for Algicidal activity (degree of inhibition): 50 μl of protein (100 μg/ml), after 24 hr
Procedure: as §1, §2, §3, §4, §5

B1: KAOT1_10476: metallo protease of Kordia algicida OT1: signal peptide (1-27), processing peptide (28-98), mature region (99-278) (protein, listed as Kordia algicida)
chain: MKKIKNLTFALALGLGITMVSCSKDTAVVDEEQDTAIGIPQDVLQKAQSLHFNTFDMQEASFEKPNGKIEEGYMMEGDIFFTRDQLMNMELGGDITSKQYRTNNLVSPGVITIIGYTGNNSNGLTTKMQTGLRWAVDNYNALNLSISFQLTFGTDYQNKDMVVYQVQGGAGGSAGFPSGGNPYKWVKINSGMAPYSNNVHEHVIGHEIGHSIGFRHSDYFSRQSCGQNSNEGSAGVGAIHIPGTPTGWDPTSLMNACFSSSEDGEFNGNDITALNFLY
modifications: KAOT1_10476 of Kordia algicida OT-1
Algicidal activity (in words) (Thalassiosira sp.): showed algicidal activity
Algicidal activity (degree of inhibition) (Thalassiosira sp.): ++++ (++++ means >75% the degree of inhibition)
Algicidal activity (in words) (Gymnodinium sp.): showed algicidal activity
Algicidal activity (degree of inhibition) (Gymnodinium sp.): ++++ (++++ means >75% the degree of inhibition)
Algicidal activity (in words) (Chaetoceros cuvisetus): showed algicidal activity
Algicidal activity (degree of inhibition) (Chaetoceros cuvisetus): ++++ (++++ means >75% the degree of inhibition)
Algicidal activity (in words) (Skeletonema costatum): showed algicidal activity
Algicidal activity (degree of inhibition) (Skeletonema costatum): + (+ means <25%)
Algicidal activity (in words) (Alexandrium sp.): showed algicidal activity
Algicidal activity (degree of inhibition) (Alexandrium sp.): ++++ (++++ means >75% the degree of inhibition)
Algicidal activity (in words) [1]: cell growth was inhibited effectively
Algicidal activity (degree of inhibition) [1]: ++++ (++++ means >75% the degree of inhibition)
Algicidal activity (in words) (Heterosigma akashiwo): showed algicidal activity
Algicidal activity (degree of inhibition) (Heterosigma akashiwo): ++++ (++++ means >75% the degree of inhibition)

B2: FJ: protein of Flavobacterium johnsoniae UW101 with homology to KAOT1—10476 (protein, listed as Flavobacterium johnsoniae)
chain: MKKIKSILILSFTALVLLSCNKEDETVSSGQESLKVTPEVLEKLKSLSLNTSDVQVIQNTSLEGAVEDAFLVEGDIIITQAQLNKMDLHGGITTEQYRTTNLVSAPRTIKVVGLSGTGTTALTTNMRNGLQAAINRYNNLGLSINFTLTFSSSTSGANIVVRRQTGSAGGVAGFPSGGNPYNSVTLYSGLDSYSTNVNAHVAAHEIGHCIGLRHTDWFSRQSCGQNSNEGTAGVGAILIPGTPSGYDATSYMRACFGSNETGAFNANDITALNYLY
modifications: Flavobacterium johnsoniae UW101 (ZP_01247095)
Algicidal activity (degree of inhibition) (Thalassiosira sp.): ++++ (++++ means >75% the degree of inhibition)
Algicidal activity (degree of inhibition) (Gymnodinium sp.): ++++ (++++ means >75% the degree of inhibition)
Algicidal activity (degree of inhibition) (Chaetoceros cuvisetus): ++++ (++++ means >75% the degree of inhibition)
Algicidal activity (degree of inhibition) (Skeletonema costatum): ++ (++ means 25-50%)
Algicidal activity (degree of inhibition) (Alexandrium sp.): ++++ (++++ means >75% the degree of inhibition)
Algicidal activity (degree of inhibition) [1]: ++++ (++++ means >75% the degree of inhibition)
Algicidal activity (degree of inhibition) (Heterosigma akashiwo): ++++ (++++ means >75% the degree of inhibition)

B3: CRO: protein of Croceibacter atlanticus HTCC2559 with homology to KAOT1—10476 (protein, listed as Croceibacter atlanticus)
chain: MVFVSCEKDNDTNNAEVADTNEVTTGSLETLGVNTDLTPTNLDQATLDLIASKHLSPIGAQEELRYLPDGTSEKAIRIEGDIVMTKAELEELEFNGYSNENAQYSTNALVSPQTITIIGYTGGSQALTSSEQTALQWAVANYNRLNLNINFSLTFGTNYQNKDMVVYNNTVNNPSGAGGSAGFPSGGNPHKFVQIYGLSNYNTNVIEHVITHEIGHSVGFRHTDYFSRQSCGQNTNEGTAGVGANHIPGTPTGYDSTSIMLACFSSGEDGEFNSNDITALNYLY
modifications: Croceibacter atlanticus HTCC2559 (ZP_00951344)
Algicidal activity (degree of inhibition) (Thalassiosira sp.): ++++ (++++ means >75% the degree of inhibition)
Algicidal activity (degree of inhibition) (Gymnodinium sp.): ++++ (++++ means >75% the degree of inhibition)
Algicidal activity (degree of inhibition) (Chaetoceros cuvisetus): ++++ (++++ means >75% the degree of inhibition)
Algicidal activity (degree of inhibition) (Alexandrium sp.): ++++ (++++ means >75% the degree of inhibition)
Algicidal activity (degree of inhibition) [1]: ++++ (++++ means >75% the degree of inhibition)
Algicidal activity (degree of inhibition) (Heterosigma akashiwo): ++++ (++++ means >75% the degree of inhibition)

B4: MED: protein of Leeuwenhoekiella blandensis MED217 with homology to KAOT1—10476 (protein, listed as Leeuwenhoekiella blandensis)
chain: MTSCSEDAEQTTLPEAQPTSNLEVSSEIIQQVEDLGMNANYVRWDDFYFPDGSSEPRLFLEEDVVVTPEQLSSMSANVEESKSGKGDSKQYRTSALVSQGRTISIIGYTGGSQALSQKERTALQWAVANYNRLSGVSISFNLTFGTDYQNKDMVVYNNTVNNPSGAGGSAGFPSNGLPYKFVQIYGLANYDTNVVEHVMTHEIGHSVGFRHTDWFSRQSCGQNVYEGGDANHVSGTPTGYDSTSIMLACFSANEDGEFNANDITALNNMY
modifications: Leeuwenhoekiella blandensis MED217 (ZP_01059780)
Algicidal activity (degree of inhibition) (Thalassiosira sp.): ++++ (++++ means >75% the degree of inhibition)
Algicidal activity (degree of inhibition) (Gymnodinium sp.): ++++ (++++ means >75% the degree of inhibition)
Algicidal activity (degree of inhibition) (Chaetoceros cuvisetus): ++++ (++++ means >75% the degree of inhibition)
Algicidal activity (degree of inhibition) (Skeletonema costatum): ++++ (++++ means >75% the degree of inhibition)
Algicidal activity (degree of inhibition) (Alexandrium sp.): ++++ (++++ means >75% the degree of inhibition)
Algicidal activity (degree of inhibition) [1]: ++++ (++++ means >75% the degree of inhibition)
Algicidal activity (degree of inhibition) (Heterosigma akashiwo): ++++ (++++ means >75% the degree of inhibition)

B5: KAOT1_11562: protein of Kordia algicida with high homology to KAOT1—10476 (protein, listed as Kordia algicida)
chain: MKRNFKIQMLYVLLTMLLLAGCQNDTEEELVEEATTAVERVDVKWLAPDDHPVVQLLYSRGYERGTIYETDEHFLAPPDLLYSKDINDYDLSDNGSNAEQAYNTGKLVSLNRMRINVFLDNSIGTDLQTQSVNAMNELNGINNCALFFVRVFNANQAQITIRSDFGAESNNVLGRAGFPSNGRPFDTVTLNVDRLDDFGADIRRNTIIHELGHCVGLRHTDWQANRERSAVNIPGTSANDTGSIMWHTINGGTPFTNGDLTAFRALFPRALRIDVVNEIDDYDYSGEIYVLDNVFVDVFTDGSYSTQTTLNRNVNVSYRINVQEYNHTSGTYYYSRNRTLTAGNNRYYIDDEEEECSPYQGETCTRQDLEIRLATSIL
modifications: Kordia algicida KAOT1_11562
Algicidal activity (degree of inhibition) (Thalassiosira sp.): ++++ (++++ means >75% the degree of inhibition)
Algicidal activity (degree of inhibition) (Gymnodinium sp.): ++++ (++++ means >75% the degree of inhibition)
Algicidal activity (degree of inhibition) (Chaetoceros cuvisetus): ++++ (++++ means >75% the degree of inhibition)
Algicidal activity (degree of inhibition) (Skeletonema costatum): + (+ means <25%)
Algicidal activity (degree of inhibition) (Alexandrium sp.): ++++ (++++ means >75% the degree of inhibition)
Algicidal activity (degree of inhibition) [1]: ++++ (++++ means >75% the degree of inhibition)
Algicidal activity (degree of inhibition) (Heterosigma akashiwo): ++++ (++++ means >75% the degree of inhibition)

Reference: patent publication US20100272689A1, “Protease Having Algicidal Activity, Gene Encoding the Same and Algicidal Formulation Comprising the Same” (KOREA OCEAN RESEARCH & DEVELOPMENT INSTITUTE, priority 2007, published 2010)
